From the nanobody polyreactivity screen of Harvey et al. (2022)

Assay: yeast display, Sf9 membrane polyspecificity reagent, FACS + sequencing; frameworks hold sequencing errors
How it was run: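 Using colony PCR, genes from sorted yeast display clones were amplified, then sequenced on MiSeq at 2 × 250 and filtered by CDR length. The clones had been stained with 10% biotinylated, detergent-solubilized Sf9 membrane reagent for 1 hour at 4 °C and sorted by FACS into low and high (top ~1%) gates on anti-HA and streptavidin fluorescence. Polyreactivity labels come from the gate of origin.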

Row | Sequence | polyreactivity (PSR sort gate)
1 | QVQLVESGGGLVQAGGSLRLSCAASGSIFGRNAMGWYRQAPGKEREIVAAISQRGGRTYYADSVKGRFTISRDNAKNTVYLQMNRLKPEDTAVYYCAATYTRVPNRFYYWGQGTQVTVSS | high polyreactivity
2 | QVQLVESGGGLVQAGGSLRLSCAASGSIFGRNAMGWYRQAPGKERELVAAISGRASSTFYADSVKGRFTISRDNAKNTVYLQMNSLKPEDTAVYYCAARNSYGGPTYEHYYWGQGTQVTVSS | high polyreactivity
3 | QVQLVESGGGLVQAGGSLRLSCAASGSIFGRYAMGWYRQAPGKERELVAAITYRGGTTYYADSVKGRFTISRDNAKNTVYLQMNSLKPEDTAVYYCAAEGTWYYKYGYFAYYYWGQGTQVTVSS | low polyreactivity
4 | QVQLVESGGGLVQAGGSLRLSCAASGSIFGRYGMGWYRQAPGKERELVAAITSGTRTNYADSVKGRFTISRDNAKTTVYLQMNSLKPEDTAVYYCNALRLRGNYEYGYWGQGTQVTVSS | low polyreactivity
5 | QVQLVESGGGLVQAGGSLRLSCAASGSIFGRYVMGWYRQAPGKERELVAAISTSGDSTYYADSVKGRFTISRDNAKNTVYLQMNSLKPEDTAVYYCNARKRTFPSRSIGGDYWGQGTQVTVSS | high polyreactivity
6 | QVQLVESGGGLVQAGGSLRLSCAASGSIFGSNAMGWYIQAPGKERELVAAITWSDGSTYYADSVKGRFTISRDNAKNTVYLQMNSLKPEDTAVYYCAADSWWGIYYSGYDYWGQGTQVTVSS | low polyreactivity
7 | QVQLVESGGGLVQAGGSLRLSCAASGSIFGSYAMGWYRQAPGKERDLVAAISGSGGRTYYADSVKGRFTISRDNAKNTVYLQMNSLKPEDTAVYYCAAAYPRVTYKYGYYWGQGTQVTVSS | high polyreactivity
8 | QVQLVESGGGLVQAGGSLRLSCAASGSIFGSYAMGWYRQAPGKERELVAAISSSGGSTYYADSVKGRFTISRVNAKNTVYFQMNSLKPEDTAVYYCNKYVRYGDGYWGQGTQVTVSS | high polyreactivity
9 | QVQLVESGGGLVQAGGSLRLSCAASGSIFGSYAMGWYRQAPGKERELVAAISWRGGRTYYADSVKGRFTISRDNAKNTVYLQMNSLKPEDTAVYYCAAERHARSSYEYWGQGTQVTVSS | low polyreactivity
10 | QVQLVESGGGLVQAGGSLRLSCAASGSIFGSYAMGWYRQAPGKERELVAAISYSGGTTYYADSVKGRFTISRDNAKNTVYLQMNSLKPEDTAVYYCNAPVAYQREYDYWGLGTQVTVSS | low polyreactivity
11 | QVQLVESGGGLVQAGGSLRLSCAASGSIFGSYAMGWYRQAPGKERELVAGIRSGGSTYYADSVKGRFTISRDNAKNTVYLQMNSLKPEDTAVYYCAGHEEYWGQGTQVTVSS | low polyreactivity
12 | QVQLVESGGGLVQAGGSLRLSCAASGSIFGSYAMGWYRQAPGKERELVAVITSSGNTKYADSVKGRFTISRDNAKNTVYLQMNSLKPEDTAVYYCAARFITWCSQYSFRSMDYWGQGTQVTVSS | high polyreactivity
13 | QVQLVESGGGLVQAGGSLRLSCAASGSIFGTNAMGWYRQAPGKERELVAAIDGGSTTYYADSVKGRFTISRDNAKNTVYLQMNSLKPEDTAVYYCAADGSRYLNYEGYAGYEYWGQGTQVTVSS | low polyreactivity
14 | QVQLVESGGGLVQAGGSLRLSCAASGSIFGTYAMGGYRQAPGKERELVAAITGNGGRTYYADSVKGRFTISRDNAKNTVYLQMNSLKPEDTAVYYCAKATSRRGFYYWGQGTQVTVSS | high polyreactivity
15 | QVQLVESGGGLVQAGGSLRLSCAASGSIFGTYAMGWDRQARGQERALGAAIRWSSGSTYYADSVNGRFTISRDNATNTESLQMNSLKPADTAVYYCNAEYVYYWLGATFGYWGQGTQVTVSS | high polyreactivity
16 | QVQLVESGGGLVQAGGSLRLSCAASGSIFGTYAMGWYRQAPGKERELVAAITTSAGSTYYADSVKGRFTISRDNAKNTVYLEMNSLKPEDTAVYYCAKYAYTSVHSWYYYWGQGTQVTVSS | high polyreactivity
17 | QVQLVESGGGLVQAGGSLRLSCAASGSIFGVNAMGWYRQAPGKERELVASITGGDSTNYADSEKGRFTISRDNAKNTVYLQMNSLKPEDTAVYYCAKDHYYRYEEGDYWGQGTQVTVSS | low polyreactivity
18 | QVQLVESGGGLVQAGGSLRLSCAASGSIFGVNAMGWYRQAPGKERELVATIRQRGTSTYNADSVKGRFTISRDTAKNTVYLQMNSLKPEDTAVYYCAARGGVLKGYYYWGQGTQVTVSS | high polyreactivity
19 | QVQLVESGGGLVQAGGSLRLSCAASGSIFGVNAMGWYRQAPGKERELVATITWRTGSTYYADSVKGRFTISRDNAKNTVYLQMNSLKPEDTAVYYCAAEDYTEFDYWGQGTQVTVSS | low polyreactivity
20 | QVQLVESGGGLVQAGGSLRLSCAASGSIFGVNDMGWYRQAPGKERELVAGISSSGGSTYDADSVMGRFTISRDNAKNTVYLQMNSLKPEDTAVYYCAARKLYRPRGRRVGYWGQGTQVTVSS | low polyreactivity
21 | QVQLVESGGGLVQAGGSLRLSCAASGSIFGVYAIGWYRQAPGKERELVATISWSAGSTYYADSVKGRFTISRDNAKNTVYLQMNSLKPEDTAVYYCAAGVRWLGLYDLFTFDYWGQGTQVTVSS | low polyreactivity
22 | QVQLVESGGGLVQAGGSLRLSCAASGSIFGVYAMGRYIQAPRKERELVASISRGGSTNYADSVKGRFTISRDNAKNTVYLQMKSLKPEDTAVYYCASDGVYQGWTWLYGLRYNYWGQGTQVTVSS | low polyreactivity

Row | Sequence | polyreactivity (PSR sort gate)
23 | QVQLVESGGGLVQAGGSLRLSCAASGSIFGVYAMGWYRPAPGKERELVAVIRWRGGSTYYADSVKGRFTISRDNAKNTVYLQMNSLKPEDTAVYYCAARRHIVVATYDRRYDYWGQGTQVTVSS | low polyreactivity
24 | QVQLVESGGGLVQAGGSLRLSCAASGSIFGVYAMGWYRQAPGKERELVAAISWSGTSTYYADSVKGRFTISRDNAKNTVYLQMNSLKPEDTAVYYCNADWVLDGYDYDYWGQGTQVTVSS | low polyreactivity
25 | QVQLVESGGGLVQAGGSLRLSCAASGSIFGVYAMGWYRQAPGKESELVATITWRGGSTYYADSVKGRFTISRDNAKNTVYLQMNSLKPEDTSVYYCNARYKWGYYSRYDYWGQGTQVTVSS | high polyreactivity
26 | QVQLVESGGGLVQAGGSLRLSCAASGSIFGVYTMGWYRQAPGKERELVAAITSAGSTYADSVKGRFTISRDKAKNTVYLQMNSLKPEDTAVYYCNAQSVLLSLRVELREPHEYWGQGTQVTVSS | low polyreactivity
27 | QVQLVESGGGLVQAGGSLRLSCAASGSIFGWNAMGWYRQAPGKERELVAAINWTGGTTYYADSVKGRFTISRDNEKNTVYLQMNSLKPEDTAVYYCAARLTYHVAGQMTRYYYWGQGTQVTVSS | low polyreactivity
28 | QVQLVESGGGLVQAGGSLRLSCAASGSIFGWYAMGWYRQAPGKERELVAAISGSGGSTYYADSVKGRFTISRDTAKNTVYLQMNSLKPEDTAVYYCNAYRRVGTSEYWGQGTQVTVSS | high polyreactivity
29 | QVQLVESGGGLVQAGGSLRLSCAASGSIFGWYAMGWYRQAPGKERELVAAITFSSVSTYYADSVKGRFTISRDTAKNTVYLQMNSLKPEDTAVYYCAAVVYYTFDYWGQGTQVTVSS | low polyreactivity
30 | QVQLVESGGGLVQAGGSLRLSCAASGSIFGYNAMGWYRQAPGKEREFVAAIRWSSGSTYYADSVKGRFTISRDNAKNTVYLQMNSLKPEDTAVYYCATRQTYLYWGQGTQVTVSS | high polyreactivity
31 | QVQLVESGGGLVQAGGSLRLSCAASGSIFGYNAMGWYRQAPGKERELDAAISISDGSTYYADSVKGRFTISRDNAKNTVYFQMNSLKPEDTAVYYCAAPRDLSGYGNFGNGPFYYWGQGTQVTVSS | low polyreactivity
32 | QVQLVESGGGLVQAGGSLRLSCAASGSIFGYNAMGWYRQAPGKERELVAAIRISTDNTYYADSVKGRFTISRDNAKNTVYLQMNSLKPEDTAVYYCAADEYWWGYYYWGQGSQVTVSS | high polyreactivity
33 | QVQLVESGGGLVQAGGSLRLSCAASGSIFGYNAMGWYRQAPGKERELVAAISGGGGTYYADSVKGRFTISRDNAKNTVYLQMNSLKPEDTAVYYCATDRGHKWLFYGTYYRYEYWGQGTQVTVSS | low polyreactivity
34 | QVQLVESGGGLVQAGGSLRLSCAASGSIFGYNAMGWYRQAPGKERELVAAISGGGGTYYADSVKGRFTISRDNAKNTVYLQMNSLKPEDTAVYYCATDRVHKWLFYGTYYRYEYWGQGTHVTVSS | low polyreactivity
35 | QVQLVESGGGLVQAGGSLRLSCAASGSIFGYNAMGWYRQAPGKERELVAAISYSGGRTYYADSVKGRFTISRDNAKNTVYLQMNSLKPEDTAVYYCAKYKVGYVPSGYRYDSWGQGTQVTVSS | high polyreactivity
36 | QVQLVESGGGLVQAGGSLRLSCAASGSIFGYNAMGWYRQAPGKERELVAAITSIGGNTYADSVKGRFTISRDNAKNTVYLQMNSLKPEDTAVYYCAAERNTDPIQVVYEFDYWGQGTQVTVSS | low polyreactivity
37 | QVQLVESGGGLVQAGGSLRLSCAASGSIFGYNAMGWYRQARGKERELVAAITSSGGSTYYADSVKGRFTISRDNSKNTVYLQMKSLKPEDTAVYYCNARDWYIVWYDYWGQGTQVTVSS | low polyreactivity
38 | QVQLVESGGGLVQAGGSLRLSCAASGSIFGYYAMGWYRQAPGKEREFVAAITSRVGRTHYADSVKGRFTISRDNAKNTVYLQMNSLKPEDTAVYYCAAEVRQYYRRGYYWGQGTQVTVSS | high polyreactivity
39 | QVQLVESGGGLVQAGGSLRLSCAASGSIFGYYAMGWYRQAPGKERELVAAINRDGGSTYYADSVKGRFTISRDNAKNTVYLQMNSLKPEDTAVYYCAAVVRRPGPGRMDYWGQGTQVTVSS | low polyreactivity
40 | QVQLVESGGGLVQAGGSLRLSCAASGSIFGYYAMGWYRQAPGKERELVAAISSGGNTNYADSVNGRFTISRDNAKITVYLQMTSLKPEDTAVYDCATRARYKRIRYDYWGQGTKVTVSS | high polyreactivity
41 | QVQLVESGGGLVQAGGSLRLSCAASGSIFGYYAMGWYRQAPGKERELVAAISWSGGRTYYADSVKGRFTISRDNAKNTVYLQMNSLKPEDTAVYYCNARWRSGPRAYDYWGQGTQVTVSS | high polyreactivity
42 | QVQLVESGGGLVQAGGSLRLSCAASGSIFGYYAMGWYRQAPGKERELVASIRRGSSTNYADSVKGRFTISRDNAKHTVYLQMNSLKPEDTAVYYCNAVLLSYDGRGYSNLYDYWGQGTQVTVSS | low polyreactivity
43 | QVQLVESGGGLVQAGGSLRLSCAASGSIFGYYAMGWYRQAPGKERELVASISGSGGTTYYADSVKGRFTISRDNAKNTVYLQMNSLKPEDTAVYYCAARRSIYGYPFVTSRRGYWGQGTQVTVSS | high polyreactivity
